This is an account of results in patent US20200317768A1 (published 2020).

Assay in all cases: SPR (BIACORE); KD of SG1 divided by KD of variant
In general terms: Surface plasmon resonance follows binding to a sensor surface in real time, without labels.

Test [1] has as its target T1, cynomolgus monkey FcγRIIa1 extracellular domain, His-tagged (cynomolgus monkey).
T1 construct: also called cyno FcγRIIa1; cynoFcgRIIa1; not shown: C-terminal His-tag
T1 chain: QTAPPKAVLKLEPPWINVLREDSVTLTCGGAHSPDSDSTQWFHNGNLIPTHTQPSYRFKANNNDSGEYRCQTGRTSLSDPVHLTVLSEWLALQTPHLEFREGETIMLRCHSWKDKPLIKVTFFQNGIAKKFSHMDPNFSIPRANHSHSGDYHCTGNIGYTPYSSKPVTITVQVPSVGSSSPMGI
The procedure: (§1) The kinetic analysis of interactions between these antibodies and FcγR was carried out using BIACORE® T200 or BIACORE® 4000 (GE Healthcare). HBS-EP+ (GE Healthcare) was used as the running buffer, and the measurement temperature was set to 25° C. A chip produced by immobilizing Protein A. Protein A/G or mouse anti-human IgG kappa light chain (BD Biosciences) onto a Series S Sensor Chip CM4 or CM5 (GE Healthcare) by the amine-coupling method was used. […] After the measurement, the antibody captured on the chip was washed off by allowing reaction with 10 mM glycine-HCl, pH1.5 and 25 mM NaOH so that the chip was regenerated and used repeatedly. The sensorgrams obtained as measurement results were analyzed by the 1:1 Langmuir binding model using the BIACORE® Evaluation Software to calculate the binding rate constant ka (L/mol/s) and dissociation rate constant kd (l/s), and the dissociation constant KD (mol/L) was calculated from these values. […] Regarding such interactions, KD values were calculated using the following 1:1 binding model described in BIACORE® T100 Software Handbook BR1006-48 Edition AE.

Test [2] addresses T2, cynomolgus monkey FcγRIIa2 extracellular domain, His-tagged (cynomolgus monkey).
T2 construct: also called cyno FcγRIIa2; cynoFcgRIIa2; not shown: C-terminal His-tag
T2 chain: T1 chain with P95T, T121A, I127K, A128S, K130N, D135N, R142Q
The protocol: as §1

For test [3], the target named is T3, cynomolgus monkey FcγRIIa3 extracellular domain, His-tagged (cynomolgus monkey).
T3 construct: also called cyno FcγRIIa3; cynoFcgRIIa3; not shown: C-terminal His-tag
T3 chain: T1 chain with P95T, T121A, A128S, H133P, D135N
The protocol: as §1

Test [4] has as its target T4, cynomolgus monkey FcγRIIIaS extracellular domain, His-tagged (cynomolgus monkey, UniProt Q8SPW2 21-206 at identity 1.00)).
T4 construct: also called cyno FcγRIIIaS; cynoFcγRIIIaS; not shown: C-terminal His-tag
T4 chain: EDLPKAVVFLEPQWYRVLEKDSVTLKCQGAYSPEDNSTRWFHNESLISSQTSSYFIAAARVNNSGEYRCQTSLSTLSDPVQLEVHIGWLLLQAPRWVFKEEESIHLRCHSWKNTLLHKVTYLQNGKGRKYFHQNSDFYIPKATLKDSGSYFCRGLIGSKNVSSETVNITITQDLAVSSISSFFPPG
The protocol:
as §1

The target of test [5] is T5, human FcγRIIaH extracellular domain, His-tagged (human, UniProt P12318 34-217).
T5 construct: also called human FcγRIIa (type H); FcgRIIaH; not shown: C-terminal His-tag
T5 sequence: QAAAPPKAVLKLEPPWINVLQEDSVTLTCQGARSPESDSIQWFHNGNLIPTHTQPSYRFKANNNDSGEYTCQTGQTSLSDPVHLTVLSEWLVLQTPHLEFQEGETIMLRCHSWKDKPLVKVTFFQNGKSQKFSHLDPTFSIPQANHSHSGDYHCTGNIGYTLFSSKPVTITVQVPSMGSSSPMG
The procedure: as §1

For test [6], the target named is T6, human FcγRIIb extracellular domain, His-tagged (human, UniProt P31994 43-217).
T6 construct: also called FcgRIIb (human); not shown: C-terminal His-tag
T6 sequence: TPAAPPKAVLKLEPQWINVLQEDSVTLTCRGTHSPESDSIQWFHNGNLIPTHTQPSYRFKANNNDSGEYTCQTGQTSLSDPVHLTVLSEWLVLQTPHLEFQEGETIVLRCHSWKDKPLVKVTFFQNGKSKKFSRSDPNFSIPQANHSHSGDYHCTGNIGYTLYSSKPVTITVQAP
The protocol:
as §1

Test [7] addresses T7, human FcγRIIIaV extracellular domain, His-tagged (human, UniProt P08637 17-208).
T7 construct: also called FcgRIIIaV; not shown: C-terminal His-tag
The procedure: as §1

Changes are numbered by the printed parent chain.

T7 sequence (P08637 17-208 F176V): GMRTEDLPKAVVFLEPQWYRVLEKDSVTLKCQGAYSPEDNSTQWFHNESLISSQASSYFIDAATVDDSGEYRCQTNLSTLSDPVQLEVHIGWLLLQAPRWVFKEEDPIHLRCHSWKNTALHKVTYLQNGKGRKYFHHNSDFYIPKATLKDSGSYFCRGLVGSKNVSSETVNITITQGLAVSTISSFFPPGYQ

B1: MS_M103205H795-SG1/M103202L889-SK1 (antibody, human IgG1, kappa)
heavy: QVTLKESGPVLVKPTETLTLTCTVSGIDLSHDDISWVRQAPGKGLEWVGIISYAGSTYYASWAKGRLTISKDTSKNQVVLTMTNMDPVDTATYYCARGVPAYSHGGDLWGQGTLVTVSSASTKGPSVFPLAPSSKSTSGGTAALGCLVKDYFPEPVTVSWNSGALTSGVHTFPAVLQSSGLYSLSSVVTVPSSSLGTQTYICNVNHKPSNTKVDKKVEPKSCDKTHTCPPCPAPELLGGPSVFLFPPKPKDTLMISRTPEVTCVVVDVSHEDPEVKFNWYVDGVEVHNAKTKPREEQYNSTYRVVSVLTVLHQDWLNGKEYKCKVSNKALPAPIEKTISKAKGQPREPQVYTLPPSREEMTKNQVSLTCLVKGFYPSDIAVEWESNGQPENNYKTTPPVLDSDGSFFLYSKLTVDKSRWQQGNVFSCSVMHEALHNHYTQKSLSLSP
light: DIVMTQSPATLSLSPGERATLSCTSSQSVYHANWLSWFQQKPGQPPKLLIYWASTLAYGVPSRFSGSGSGTDFTLTISSLQPEDAATYYCAGGYGGGRYAFGQGTKVEIKRTVAAPSVFIFPPSDEQLKSGTASVVCLLNNFYPREAKVQWKVDNALQSGNSQESVTEQDSKDSTYSLSSTLTLSKADYEKHKVYACEVTHQGLSSPVTKSFNRGEC
notes: Parent antibody with heavy chain constant region SG1; also called MS1032LO06-SG1; copies: 2 + 2
Take B1: the “KD fold (SG1 = 1)” value in test [1], in test [2], in test [3], in test [4], in test [5] and in test [6] was 1 fold in each case. Also, in test [7], the “KD fold (SG1 = 1)” value is 1 fold.

B2: M103205H795-MY443/M103202L889-SK1 (antibody, human IgG1, kappa)
heavy: QVTLKESGPVLVKPTETLTLTCTVSGIDLSHDDISWVRQAPGKGLEWVGIISYAGSTYYASWAKGRLTISKDTSKNQVVLTMTNMDPVDTATYYCARGVPAYSHGGDLWGQGTLVTVSSASTKGPSVFPLAPSSKSTSGGTAALGCLVKDYFPEPVTVSWNSGALTSGVHTFPAVLQSSGLYSLSSVVTVPSSSLGTQTYICNVNHKPSNTKVDKKVEPKSCDKTHTCPPCPAEELLTGPSVFLFPPKPKDTLMISRTPEVTCVVVDVSDEDPEVKFNWYVDGVEVHNAKTKPREEQYNSTYRVVSVLTVLHQDWLNGKEYKCKVSNKALPKPIEKTISKAKGQPREPQVYTLPPSREEMTKNQVSLTCLVKGFYPSDIAVEWESNGQPENNYKTTPPVLDSDGSFFLYSKLTVDKSRWQQGNVFSCSVMHEALHNHYTQKSLSLSP
light: B1 light
notes: copies: 2 + 2
For the molecule B2, the “KD fold (SG1 = 1)” value in test [1] was 0.7 fold; in test [2], 1 fold; in test [3] it was 1.9 fold; in test [4], 0.1 fold; in test [5], 1.3 fold; in test [6], 1.6 fold. The “KD fold (SG1 = 1)” value in test [7] amounted to 0.1 fold.

B3: M103205H795-MY442/M103202L889-SK1 (antibody, human IgG1, kappa)
heavy: B2 heavy with E234D
light: B1 light
notes: copies: 2 + 2
For B3, the “KD fold (SG1 = 1)” value in test [1] is 0.7 fold; in test [2] it was 1.2 fold; in test [3], 2.5 fold; in test [4], 0.2 fold; in test [5], 1.5 fold; in test [6], 2.6 fold. Moreover, in test [7], the “KD fold (SG1 = 1)” value was determined as 0.2 fold.

B4: M103205H795-MY446/M103202L889-SK1 (antibody, human IgG1, kappa)
heavy: B2 heavy with E234H
light: B1 light
notes: copies: 2 + 2
As to B4, the “KD fold (SG1 = 1)” value in test [1] was found to be 1.3 fold; in test [2], 2.3 fold; in test [3] it was 3.6 fold; in test [4], 0.1 fold; in test [5], 2.7 fold; in test [6], 1.9 fold. For the same molecule, the “KD fold (SG1 = 1)” value in test [7] was 0.1 fold.

B5: M103205H795-MY459/M103202L889-SK1 (antibody, human IgG1, kappa)
heavy: B2 heavy with A233D, E234P
light: B1 light
notes: copies: 2 + 2
Consider B5, for which the “KD fold (SG1 = 1)” value in test [1] was 0.6 fold; in test [2], 1.1 fold; in test [3], 2.3 fold; in test [4], 0.1 fold; in test [5], 1.8 fold; in test [6] it was 1.8 fold. Further, the “KD fold (SG1 = 1)” value in test [7] amounted to 0.1 fold.

B6: M103205H795-MY265/M103202L889-SK1 (antibody, human IgG1, kappa)
heavy: B2 heavy with E234P
light: B1 light
notes: also called MS103205H795-MY265; copies: 2 + 2
As to B6, the “KD fold (SG1 = 1)” value in test [1] turned out to be 1.5 fold; in test [2], 2.7 fold; in test [3] it was 3.5 fold; in test [4], 0.2 fold; in test [5] it was 3.3 fold; in test [6], 2.1 fold. In test [7], the “KD fold (SG1 = 1)” value amounted to 0.2 fold.

B7: M103205H795-MY441/M103202L889-SK1 (antibody, human IgG1, kappa)
heavy: B2 heavy with E234A
light: B1 light
notes: copies: 2 + 2
As for B7, the “KD fold (SG1 = 1)” value in test [1] was 0.8 fold; in test [2], 1.5 fold; in test [3], 2.1 fold; in test [4] it was 0.1 fold; in test [5], 1.9 fold; in test [6], 1.6 fold. The “KD fold (SG1 = 1)” value in test [7] is 0.1 fold.

B8: M103205H795-MY447/M103202L889-SK1 (antibody, human IgG1, kappa)
heavy: B2 heavy with E234I
light: B1 light
notes: copies: 2 + 2
Turning to B8, the “KD fold (SG1 = 1)” value in test [1] was determined as 3.2 fold; in test [2], 5.3 fold; in test [3], 11.3 fold; in test [4], 0.5 fold; in test [5], 7.1 fold; in test [6], 10.5 fold. Besides, the “KD fold (SG1 = 1)” value in test [7] was found to be 0.2 fold.

B9: M103205H795-MY445/M103202L889-SK1 (antibody, human IgG1, kappa)
heavy: B2 heavy with E234G
light: B1 light
notes: copies: 2 + 2
For the molecule B9, the “KD fold (SG1 = 1)” value was found to be 0.6 fold in test [1]; 0.9 fold in test [2]; 1.2 fold in test [3]; 0.1 fold in test [4]; 1.2 fold in test [5]; 1.1 fold in test [6]. Also, the “KD fold (SG1 = 1)” value in test [7] was 0.1 fold.

B10: M103205H795-MY444/M103202L889-SK1 (antibody, human IgG1, kappa)
heavy: B2 heavy with E234F
light: B1 light
notes: copies: 2 + 2
Regarding B10, the “KD fold (SG1 = 1)” value in test [1] came to 2.7 fold; in test [2], 4.6 fold; in test [3], 6.9 fold; in test [4], 0.2 fold; in test [5], 6.3 fold; in test [6], 6.2 fold. Also, the “KD fold (SG1 = 1)” value in test [7] is 0.3 fold.

B11: M103205H795-MY448/M103202L889-SK1 (antibody, human IgG1, kappa)
heavy: B2 heavy with E234K
light: B1 light
notes: copies: 2 + 2
As to B11, the “KD fold (SG1 = 1)” value in test [1] was 0.3 fold; in test [2], 0.7 fold; in test [3] it was 0.8 fold; in test [4], 0.1 fold; in test [5], 0.7 fold; in test [6], 0.5 fold. Further, in test [7], the “KD fold (SG1 = 1)” value is 0.1 fold.
